Reference: patent publication US20240035010, “COMPOSITIONS COMPRISING A VARIANT POLYPEPTIDE AND USES THEREOF” (Arbor Biotechnologies, Inc., published 2024)

Tests used:
[1] = biological target: T1, variant nuclease 7 substitutions D590G/E154G/E736G (P14R, D32R, I61R, E311R, D590G, E154G, E736G); assay: cell_activity; PAM 5'-ATTG-3'; settings: tags: pcDNA3.1 expression
T1 chain: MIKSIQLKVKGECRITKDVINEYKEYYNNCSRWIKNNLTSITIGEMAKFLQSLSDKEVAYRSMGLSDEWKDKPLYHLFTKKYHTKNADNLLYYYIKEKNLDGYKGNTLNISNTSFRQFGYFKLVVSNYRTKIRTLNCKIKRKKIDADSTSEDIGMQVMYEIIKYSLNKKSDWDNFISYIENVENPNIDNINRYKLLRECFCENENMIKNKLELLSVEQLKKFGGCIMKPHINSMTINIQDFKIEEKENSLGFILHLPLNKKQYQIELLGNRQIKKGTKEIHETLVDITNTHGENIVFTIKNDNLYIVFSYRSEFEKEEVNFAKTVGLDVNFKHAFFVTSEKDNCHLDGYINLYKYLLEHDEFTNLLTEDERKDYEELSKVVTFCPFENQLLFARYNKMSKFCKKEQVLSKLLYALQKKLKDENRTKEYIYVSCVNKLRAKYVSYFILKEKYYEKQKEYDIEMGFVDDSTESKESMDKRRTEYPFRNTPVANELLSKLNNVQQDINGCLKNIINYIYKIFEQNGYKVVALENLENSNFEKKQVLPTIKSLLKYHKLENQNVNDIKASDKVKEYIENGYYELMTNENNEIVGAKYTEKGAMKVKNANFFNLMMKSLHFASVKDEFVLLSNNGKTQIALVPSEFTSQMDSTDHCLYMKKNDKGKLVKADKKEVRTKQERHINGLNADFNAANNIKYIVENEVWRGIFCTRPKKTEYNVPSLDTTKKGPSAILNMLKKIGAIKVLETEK

[2] = biological target: T2, variant nuclease T338G combination (P14R, D32R, I61R, E311R, T338G); assay: cell_activity; PAM 5'-ATTG-3'; settings: tags: pcDNA3.1 expression
T2 chain: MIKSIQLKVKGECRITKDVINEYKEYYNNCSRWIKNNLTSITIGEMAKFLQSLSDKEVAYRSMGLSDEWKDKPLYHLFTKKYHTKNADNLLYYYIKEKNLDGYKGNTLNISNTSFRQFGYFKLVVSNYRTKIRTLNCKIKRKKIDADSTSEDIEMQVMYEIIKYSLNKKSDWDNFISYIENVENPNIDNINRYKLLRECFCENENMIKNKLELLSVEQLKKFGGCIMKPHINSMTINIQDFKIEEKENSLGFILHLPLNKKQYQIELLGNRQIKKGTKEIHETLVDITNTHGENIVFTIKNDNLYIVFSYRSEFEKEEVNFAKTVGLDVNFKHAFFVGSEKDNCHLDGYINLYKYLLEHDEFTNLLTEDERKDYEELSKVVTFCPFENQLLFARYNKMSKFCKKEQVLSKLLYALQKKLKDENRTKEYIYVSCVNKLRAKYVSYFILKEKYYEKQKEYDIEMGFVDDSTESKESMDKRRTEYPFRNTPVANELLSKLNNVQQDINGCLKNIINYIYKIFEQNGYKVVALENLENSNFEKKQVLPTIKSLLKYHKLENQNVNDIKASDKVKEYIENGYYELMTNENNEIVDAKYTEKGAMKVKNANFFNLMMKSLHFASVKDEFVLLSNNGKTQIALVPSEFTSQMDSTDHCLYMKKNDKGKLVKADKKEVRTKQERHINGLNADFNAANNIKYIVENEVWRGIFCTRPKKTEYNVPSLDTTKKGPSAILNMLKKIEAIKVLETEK

B1: EMX1 crRNA ; EMX1 target (ssRNA ; dsDNA)
RNA: CUUGUUGUAUAUGUCCUUUUAUAGGUAUUAAACAACCCGCCGCUUCCUGAGCCAUC
DNA 1: CCGCCGCTTCCTGAGCCATC
DNA 2: GATGGCTCAGGAAGCGGCGG
[1]
  indel editing activity: 10.7 fold of WT
[2]
  indel editing activity: 7.58 fold of WT
